# Measurements taken from paper PMC10746245.
# Target: MoKat2 tagged with FLAG or GFP (MoKat2-FLAG and MoKat2-GFP) (Magnaporthe oryzae)
# Test: native gel or EMSA
substance,measurement,value
MoKat2 tagged with FLAG or GFP (MoKat2-FLAG and MoKat2-GFP) (enzyme),stoichiometry N,2
